{"source": "patent US20140011209", "target": "PrP (prion protein) (UniProt P04156)", "assay": "EMSA", "conditions": "PrP form and source not stated"}
{"sequence": "GGGAGACAAGACUAGACGCUCAACUACGAACUCAUGACACAAGGAUGCAAUCUCAUCCCG [B-end (PrPSc binding region)]", "values": [{"measurement": "Kd", "value": 0.0443, "unit": "µM"}]}
